This note sets out measurements from patent publication US20140287029A1 (US Dept. of Health and Human Services, published 2014).

The assay addresses T1, HLA-A2 molecules on T2 cells (human).
T1 construct: whole, on cells; MHC class I molecule on the surface of T2 cells
Briefly: T2 cell-binding assay, flow cytometry of HLA-A2 on T2 cells, peptide 25 µg/mL. The text has this: The T2 binding values are expressed in mean fluorescence intensity. The values in parentheses are fold increases as compared with the negative control (CAP-7 peptide).
(In general: A flow cytometer gives signals particle by particle.)

B1: NGEP peptide P703 (L) (peptide)
peptide: GLFDEYLEMV
notes: Synthetic peptide, purity >95%; positions counted on the NGEP long form (L); also called NGEP-P703
Regarding B1, the “T2 Binding (mean fluorescence intensity)” value stood at 565 MFI and the “fold increase compared with the negative control (CAP-7 peptide)” value (“fold increase” for short) was 6.4 fold.

B2: NGEP peptide P143 (peptide)
peptide: FLDNIRAAGL
notes: Synthetic peptide, purity >95%; also called P143 (5)
In the case of B2, the “T2 Binding (mean fluorescence intensity)” value worked out at 203 MFI and the “fold increase” value was found to be 2.3 fold.

B3: NGEP peptide P356 (L) (peptide)
peptide: WLLPAAVVGT
notes: Synthetic peptide, purity >95%; positions counted on the NGEP long form (L)
Take B3: the “T2 Binding (mean fluorescence intensity)” value is 354 MFI and the “fold increase” value was determined as 4 fold.

B4: NGEP peptide P846 (L) (peptide)
peptide: LLAIRLWAV
notes: as for B3
As for B4, the “T2 Binding (mean fluorescence intensity)” value worked out at 126 MFI and the “fold increase” value is 1.4 fold.

B5: NGEP peptide P113 (S) (peptide)
peptide: LVWEEDLKL
notes: Synthetic peptide, purity >95%; positions counted on the NGEP short form (S)
On to B5, for which the “T2 Binding (mean fluorescence intensity)” value was determined as 367 MFI and the “fold increase” value worked out at 4.1 fold.

B6: NGEP peptide P215 (L) (peptide)
peptide: VLLEVVPDV
notes: as for B3
In the case of B6, the “T2 Binding (mean fluorescence intensity)” value is 464 MFI and the “fold increase” value turned out to be 5.2 fold.

B7: NGEP peptide P258 (L) (peptide)
peptide: ILFEILAKT
notes: as for B3
B7: the “T2 Binding (mean fluorescence intensity)” value came to 280 MFI and the “fold increase” value came out at 3.1 fold.

B8: MUC-1 (P1240) peptide (peptide)
peptide: SLSYTNPAV
notes: Synthetic control peptide, purity >95%; also called positive control peptide
On to B8, for which the “T2 Binding (mean fluorescence intensity)” value stood at 452 MFI and the “fold increase” value is 5.1 fold.

B9: NGEP peptide P855 (L) (peptide)
peptide: IVFEHVVFSV
notes: as for B3
Consider B9, for which the “T2 Binding (mean fluorescence intensity)” value was 203 MFI and the “fold increase” value turned out to be 2.3 fold.

B10: NGEP peptide P10 (S) (peptide)
peptide: GLGGPPLPTL
notes: as for B5
Regarding B10, the “T2 Binding (mean fluorescence intensity)” value amounted to 212 MFI and the “fold increase” value stood at 2.4 fold.

B11: NGEP peptide P170 (L) (peptide)
peptide: ALLSASWAV
notes: as for B3
Turning to B11, the “T2 Binding (mean fluorescence intensity)” value was 185 MFI and the “fold increase” value came out at 2.1 fold.
